First the molecules themselves.
B1: CDC25B (parent)
chain: ELKTFRLKTRSWAGERSRRELCSR

94 variants from the supplement of paper PMC10567573 can be followed below.
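Further: lentivirally expressed fusions sorted by FACS into six bins by GFP to DsRed ratio, PSI derived from sequencing read proportions per bin multiplied by bin number.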

The variants in the data set derive from B1. The data set can be described thus: protein stability index of a GFP-peptide fusion (GPS, HEK-293T) (PSI 1-6); higher = more stable. The following applies: c terminus: a fixed tail appended.
For ELKTFRLKTRSWAGERPRRELCSR, the protein stability index was 3.35.

For ELKTFRLKTRSWAGERVRRELCSR, the protein stability index was 2.36.

For the variant ELKTFRLKTRSWAGERWRRELCSR, the protein stability index stood at 2.16.

On to ELKTFRLKTRSWAGERYRRELCSR, for which the protein stability index was 3.27.

For ELKTFRLKTRSWAGERRRRELCSR, the protein stability index was found to be 2.63.

In the case of ELKTFRLKTRSWAGERQRRELCSR, the protein stability index is 3.35.

For ELKTFRLKTRSWAGERTRRELCSR, the protein stability index stood at 3.33.

As for ELKTFRLKTRSWAGERSRLELCSR, the protein stability index worked out at 3.2.

With ELKTFRLKTRSWAGERSRCELCSR, the protein stability index was found to be 2.25.

Consider ELKTFRLKTRSWAGERSRTELCSR, for which the protein stability index worked out at 2.57.

On to ELKTFRLKTRSWAGERSRWELCSR, for which the protein stability index amounted to 2.02.

As to ELKTFRLKTRSWAGERSRFELCSR, the protein stability index worked out at 2.49.

With ELKTFRLKTRSWAGERSRYELCSR, the protein stability index is 3.51.

Take ELKTFRLKTRSWAGERSRMELCSR: the protein stability index is 3.

Take ELKTFRLKTRSWAGERSREELCSR: the protein stability index was determined as 3.66.

ELKTFRLKTRSWAGERSRDELCSR: the protein stability index was 2.88.

Consider ELKTFRLKTRSWAGERSRHELCSR, for which the protein stability index stood at 3.13.

ELKTFRLKTRSWAGERSRAELCSR: the protein stability index worked out at 4.2.

ELKTFRLKTRSWAGERSRSELCSR: the protein stability index came out at 3.28.

For ELKTFRLKTRSWAGERSRGELCSR, the protein stability index was 3.46.

With ELKTFRLKTRSWAGERSRIELCSR, the protein stability index was 2.57.

ELKTFRLKTRSWAGERSRVELCSR: the protein stability index is 2.74.

On to ELKTFRLKTRSWAGERSRNELCSR, for which the protein stability index was 3.38.

Turning to ELKTFRLKTRSWAGERSRKELCSR, the protein stability index is 3.26.

As to ELKTFRLKTRSWAGERSRQELCSR, the protein stability index was 3.45.

Consider ELKTFRLKTRSWAGERSRPELCSR, for which the protein stability index is 2.98.

ELKTFRLKTRSWAGERSRRELGSR: the protein stability index was determined as 4.06.

With ELKTFRLKTRSWAGERSRRELNSR, the protein stability index was 4.04.

Take ELKTFRLKTRSWAGERSRRELLSR: the protein stability index turned out to be 2.79.

ELKTFRLKTRSWAGERSRRELISR: the protein stability index amounted to 3.33.

For the variant ELKTFRLKTRSWAGERSRRELKSR, the protein stability index was determined as 3.57.

Take ELKTFRLKTRSWAGERSRRELASR: the protein stability index came to 3.36.

On to ELKTFRLKTRSWAGERSRRELFSR, for which the protein stability index worked out at 3.01.

Turning to ELKTFRLKTRSWAGERSRRELMSR, the protein stability index came to 2.96.

Consider ELKTFRLKTRSWAGERSRRELDSR, for which the protein stability index was found to be 3.27.

As to ELKTFRLKTRSWAGERSRRELHSR, the protein stability index worked out at 3.42.

ELKTFRLKTRSWAGERSRRELESR: the protein stability index is 3.65.

With ELKTFRLKTRSWAGERSRREPCSR, the protein stability index was found to be 3.99.

For the variant ELKTFRLKTRSWAGERSRREDCSR, the protein stability index is 3.98.

On to ELKTFRLKTRSWAGERSRREWCSR, for which the protein stability index was determined as 2.55.

Regarding ELKTFRLKTRSWAGERSRREVCSR, the protein stability index came to 3.71.

With ELKTFRLKTRSWAGERSRREACSR, the protein stability index was determined as 3.91.

With ELKTFRLKTRSWAGERSRREMCSR, the protein stability index amounted to 3.33.

Regarding ELKTFRLKTRSWAGERSRREKCSR, the protein stability index came out at 3.76.

In the case of ELKTFRLKTRSWAGERSRRETCSR, the protein stability index amounted to 3.84.

With ELKTFRLKTRSWAGERSRRERCSR, the protein stability index stood at 3.37.

As to ELKTFRLKTRSWAGERSRREYCSR, the protein stability index is 3.61.

Regarding ELKTFRLKTRSWAGERSRRESCSR, the protein stability index came out at 3.9.

Turning to ELKTFRLKTRSWAGERSRREECSR, the protein stability index stood at 3.6.

On to ELKTFRLKTRSWAGERSRREICSR, for which the protein stability index was determined as 2.81.

As for ELKTFRLKTRSWAGERSRRECCSR, the protein stability index is 3.66.

With ELKTFRLKTRSWAGERSRREQCSR, the protein stability index is 3.15.

As to ELKTFRLKTRSWAGERSRREHCSR, the protein stability index is 3.31.

For the variant ELKTFRLKTRSWAGERSRREFCSR, the protein stability index stood at 3.12.

As for ELKTFRLKTRSWAGERSRRENCSR, the protein stability index was 3.35.

For ELKTFRLKTRSWAGERSRREGCSR, the protein stability index is 3.75.

As to ELKTFRLKTRSWAGERSRRDLCSR, the protein stability index came to 2.98.

For ELKTFRLKTRSWAGERSRRFLCSR, the protein stability index was determined as 2.52.

With ELKTFRLKTRSWAGERSRRMLCSR, the protein stability index came out at 3.25.

For ELKTFRLKTRSWAGERSRRYLCSR, the protein stability index was determined as 2.69.

On to ELKTFRLKTRSWAGERSRRTLCSR, for which the protein stability index was found to be 2.88.

As to ELKTFRLKTRSWAGERSRRKLCSR, the protein stability index worked out at 3.47.

Consider ELKTFRLKTRSWAGERSRRVLCSR, for which the protein stability index was 2.9.

Consider ELKTFRLKTRSWAGERSRRLLCSR, for which the protein stability index was 2.42.

With ELKTFRLKTRSWAGERSRRILCSR, the protein stability index was found to be 2.66.

As to ELKTFRLKTRSWAGERSRRHLCSR, the protein stability index amounted to 3.52.

Take ELKTFRLKTRSWAGERSRRWLCSR: the protein stability index amounted to 2.57.

For the variant ELKTFRLKTRSWAGERSRRQLCSR, the protein stability index came out at 3.53.

In the case of ELKTFRLKTRSWAGERSRRALCSR, the protein stability index is 3.25.

For ELKTFRLKTRSWAGERSRRNLCSR, the protein stability index is 3.42.

On to ELKTFRLKTRSWAGERSRRGLCSR, for which the protein stability index amounted to 2.65.

ELKTFRLKTRSWAGERSRRCLCSR: the protein stability index was found to be 2.72.

For ELKTFRLKTRSWAGERSRRRLCSR, the protein stability index was determined as 2.78.

With ELKTFRLKTRSWAGERSRRPLCSR, the protein stability index was 3.08.

Take ELKTFRLKTRSWAGERSRRSLCSR: the protein stability index stood at 2.92.

Consider ELKTFRLKTRSWAGERSFRELCSR, for which the protein stability index was found to be 2.62.

Regarding ELKTFRLKTRSWAGERSTRELCSR, the protein stability index came to 3.38.

Turning to ELKTFRLKTRSWAGERSIRELCSR, the protein stability index was found to be 3.04.

For the variant ELKTFRLKTRSWAGERSWRELCSR, the protein stability index was 2.84.

For ELKTFRLKTRSWAGERSGRELCSR, the protein stability index was determined as 2.95.

As to ELKTFRLKTRSWAGERSQRELCSR, the protein stability index worked out at 4.01.

As to ELKTFRLKTRSWAGERSERELCSR, the protein stability index came to 3.52.

For the variant ELKTFRLKTRSWAGERSMRELCSR, the protein stability index worked out at 3.36.

On to ELKTFRLKTRSWAGERSYRELCSR, for which the protein stability index turned out to be 2.58.

Turning to ELKTFRLKTRSWAGERSSRELCSR, the protein stability index came to 3.85.

Take ELKTFRLKTRSWAGERSVRELCSR: the protein stability index was 3.6.

For ELKTFRLKTRSWAGERSLRELCSR, the protein stability index was found to be 3.23.

Consider ELKTFRLKTRSWAGERSPRELCSR, for which the protein stability index came out at 3.64.

Regarding ELKTFRLKTRSWAGERSDRELCSR, the protein stability index stood at 3.4.

As to ELKTFRLKTRSWAGERSHRELCSR, the protein stability index was 3.33.

Turning to ELKTFRLKTRSWAGERSKRELCSR, the protein stability index turned out to be 3.36.

For ELKTFRLKTRSWAGERSNRELCSR, the protein stability index worked out at 3.18.

ELKTFRLKTRSWAGERSCRELCSR: the protein stability index was found to be 2.23.

Turning to ELKTFRLKTRSWAGERSARELCSR, the protein stability index is 3.85.
